One data set relates to TPC-1 cells. Description: Cell adhesion assay: TPC-1 cell adhesion to immobilized gal-1. Format: cell-based, human. The following applies: 500 nM, TPC-1 adhesion to gal-1, non-biotinylated peptides. The procedure:
Gal-1 (Peprotech) was immobilized on 96-well culture plates at 20 µg/mL overnight at 4°C. After blocking with 0.1% BSA prepared in phosphate buffered saline (PBS, per liter: 8 g NaCl, 0.2 g KCl, 2.31 g Na2HPO4 × 12 H2O 0.2 g KH2PO4, pH 7.4), non-biotinylated peptides (P1, P7 or P1Scr) diluted in RPMI 1640 culture medium at 0.5 µM or 50 µM were pre-incubated with gal-1 for 2 hours. In the meanwhile, TPC-1 cells (10^5 cells/well) were pre-incubated with the desired concentration of peptides in RPMI 1640 culture medium for 30 minutes before seeding them into the wells. The cells were then incubated (37 °C, 5% CO2) with gal-1 immobilized on wells for one hour. The negative control cells were incubated with RPMI 1640 culture medium alone. After washing steps and plate centrifugation between them, cells were fixed 15 minutes with buffered 4% formalin (from Sigma-Aldrich) and washed before staining with 1% crystal violet. Wells were rinsed and crystal violet was solubilized with dimethyl sulfoxide (DMSO, Sigma-Aldrich) before measuring absorbance at 570 nm (differential filter at 630 nm) with a microplate reader. The percentage of adherent cells was obtained by calculating the percentage ratio of OD measured for TPC-1 incubated with peptides over the OD of negative control cells.

The next data set addresses T1, Human gal-1 (Homo sapiens, UniProt P09382).
T1 construct: purchased Peprotech
Description: Gal-1 binding of the isolated phage clones (ELISA), affinity constants against gal-1 or control proteins (HSA, collagen). The following applies: phage clone expressing the peptide; for Affinity 2 Ka^Gal-1 / Ka^Coll / Affinity 1 Ka^Gal-1 / Ka^HSA: Ka = 1/K*d; for Affinity 2 Ka^Gal-1 / Ka^Coll: Coll = collagen; for Affinity 1 Ka^Gal-1 / Ka^HSA: one representative clone per sequence; for Affinity 3 Ka^Gal-1/ ((Ka^HSA + Ka^Coll)/2): specific affinity vs mean of control proteins. The procedure:
Human gal-1 (Peprotech) and control proteins (HSA and collagen) were immobilized on 96-well ELISA plates at a concentration of 10 µg/mL in NaHCO3 0.1 M, pH 8.6, overnight at 4°C. The wells were then blocked with Protein-Free Blocking Buffer (PFBB, Thermo Fisher Scientific, p/a Perbio Science BVBA, Aalst, Belgium), 1 hour at room temperature. Fifty clones issued from each phage display experiment were first screened at one concentration (5 x 10^11 phages/100 µL for PDE1; 10^11 phages/100 µL for PDE2) prepared in Tris buffered saline (TBS: 50 mM Tris-HCl, 150 mM NaCl, pH 7.5) supplemented with 0.5% Tween-20 (TBST). The clones were incubated for 2 hours at room temperature, under mild agitation. To determine the apparent dissociation constant (K*d) of the selected clones, ten serial dilutions of phages (generally ranging from 5x10^12 to 10^7 phages/100 µL) were incubated with gal-1 or control proteins in the same conditions as for the first clones' screening. The bound phages were detected by an incubation (1 hour, room temperature) with horseradish peroxidase (HRP)-conjugated anti-M13 monoclonal antibody (Amersham Pharmacia Biotech Benelux, Roosendaal, The Netherlands) diluted 1:5000 in TBS supplemented with 0.5% BSA. After each incubation step, the wells were rinsed with an automated microplate washer (Beckman Coulter, Analis, Suarlée, Belgium). Finally, the wells were filled with 200 µL/well of 2,2'-azino-bis(3-ethylbenzothiazoline-6-sulphonic acid (ABTS, 22 mg) diammonium salt (Sigma-Aldrich) solution prepared in 50 mM sodium citrate pH 4.0 completed with 0.05% H2O2. The optical density (OD) was measured (405 nm, differential filter: 630 nm) using a microplate reader (StatFax-2100, Awareness Technology, Fisher Bioblock Scientific, Tournai, Belgium).
On the technique in general: In an ELISA, binding on a coated surface is turned into a signal by an enzyme label.

The nature of data set [1]: Circular dichroism study of secondary structure in distilled water. Particulars: non-biotinylated peptides, 1 mM in distilled water, 20 °C and 37 °C. Format: physicochemical. As for the experimental part:
Non-biotinylated peptides dissolved in distilled water at 1 mM were used for structure analysis. Circular Dichroism (CD) spectra were recorded using a ChirascanTM Plus CD Spectrometer (Applied Photophysics Inc., Leatherhead, United Kingdom). The measurements were carried out using 1 mm quartz Suprasil cells from Hellma Analytics (Müllheim, Germany). The spectra were recorded between 180 and 350 nm, with a bandwidth of 0.5 nm, time per point 2 s and three repetitions, both at 20 °C and 37 °C. The CD RMS (Root Mean Square) noise is around 0.03 mdeg at 180 nm. The aqueous solution reference spectra were used as baselines and were automatically subtracted from the CD spectra of the samples.
(In general: Circular dichroism is the unequal absorption of left and right circularly polarised light.)

Data set [2] concerns the target T2, gal-1 expressed by human tumor tissues (Homo sapiens, UniProt P09382).
T2 construct: from tissue; host or cells: paraffin-embedded human thyroid biopsy sections (healthy, inflammatory, adenoma, papillary, follicular, anaplastic)
In words: Binding of biotinylated peptides to human thyroid biopsies (immunohistochemistry, ImageJ semi-quantitative analysis). Particulars: for staining produced by peptides in healthy thyroids and thyroid adenomas compared to papillary, follicular and anaplastic thyroid cancer: ImageJ analysis of immunohistochemistry microphotographs; for targeting of the papillary areas: biotinylated peptides 20 µM, human papillary thyroid cancer biopsy sections. The procedure: Immunohistochemistry evaluation was performed on 5 µm thick sections mounted on silane-coated glass slides. The paraffin-embedded tissue specimens were deparaffinized and rehydrated. After unmasking the epitopes in citrate buffer pH 6.0, the endogenous peroxidase activity was blocked with 0.7% H2O2. Sections were then blocked with streptavidin - biotin blocking kit (Vector Labconsult) and with 0.5% casein (Sigma-Aldrich).
The binding of biotinylated peptides to tumor biopsies was validated by using a similar protocol. However, no epitope unmasking was performed, while casein blocking was replaced by PFBB. Endogenous peroxidases were blocked with 1% H2O2. The biotinylated peptides (stock prepared in distilled water) were diluted in TBS at a concentration of 20 µM and incubated with tumor biopsies overnight at 4 °C. The bound peptides were then detected with 5 µg/mL of anti-biotin antibody made in goat (Vector Labconsult) and with 1 µg/mL of biotinylated anti-goat IgG made in horse (both from Vector Labconsult) both diluted in TBS completed with 0.5% BSA […]. After incubation with Vectastain ABC kit (Vector Labconsult), the staining with DAB/H2O2 and Hemalun counterstaining were performed as described above.
Gal-1 staining on immunohistochemistry microphotographs (DM2000 Leica microscope equipped with a DFC 425C camera, Leica Microsystems) was semi-quantitatively analyzed by ImageJ software (National Institutes of Health, USA). The expression of gal-1 was compared in 5 cases of healthy thyroid, 2 cases of inflammatory thyroid (patients with goiter), 6 cases of thyroid adenoma, 6 cases of papillary thyroid cancer, 4 cases of follicular variant of papillary thyroid cancer and 6 cases of anaplastic cancer. The binding of peptides 1 and 7 was compared in 5 cases of healthy thyroid, 2 cases of inflammatory thyroid, 6 cases of thyroid adenoma, 3 cases of papillary thyroid cancer, 3 cases of follicular thyroid cancer and 6 cases of anaplastic thyroid cancer. The total area occupied by brown stained pixels was determined after thresholding the background staining on blank histological slices, where the primary antibody was excluded. The total stained area is then automatically generated after pixel segmentation.

Where no end group is shown, it is not given here.

T1 sequence (P09382 whole entry): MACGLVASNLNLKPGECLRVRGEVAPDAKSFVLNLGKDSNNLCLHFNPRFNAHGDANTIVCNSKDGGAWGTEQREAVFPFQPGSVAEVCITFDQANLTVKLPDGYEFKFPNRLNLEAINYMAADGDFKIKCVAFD
T2 sequence (P09382 whole entry): as above

YSWHIDIVAPRN [Peptide P7, YSWHIDIVAPRN]: the “decrease of cell adhesion” value in the data set with TPC-1 cells is listed as around 30%. Besides, at Human gal-1, the “Affinity 2 Ka^Gal-1 / Ka^Coll” value is reported as “infinite ratio”, the “Affinity 1 Ka^Gal-1 / Ka^HSA” value is recorded as “infinite ratio” and the “Affinity 3 Ka^Gal-1/ ((Ka^HSA + Ka^Coll)/2)” value was “infinite ratio”. Moreover, the “conformation in aqueous solution (CD signature)” value in data set [1] is “random coil state”. In data set [2], the “staining produced by peptides in healthy thyroids and thyroid adenomas compared to papillary, follicular and anaplastic thyroid cancer” value is recorded as “weaker”; the “targeting of the papillary areas” value is reported as “efficient targeting of the papillary areas”.
For the sequence HLWGWLYAPSFQ [Peptide P1, HLWGWLYAPSFQ], the “decrease of cell adhesion” value with TPC-1 cells is “around 25%”. Also, the “conformation in aqueous solution (CD signature)” value in data set [1] is reported as “random coil state”. Moreover, in data set [2], the “staining produced by peptides in healthy thyroids and thyroid adenomas compared to papillary, follicular and anaplastic thyroid cancer” value is “weaker”; the “targeting of the papillary areas” value is reported as “efficient targeting of the papillary areas”.
Regarding HYSWSWIAYSPG [Peptide P3], in the data set with Human gal-1, the “Affinity 2 Ka^Gal-1 / Ka^Coll” value amounted to 1.35, the “Affinity 1 Ka^Gal-1 / Ka^HSA” value was determined as 0.99 and the “Affinity 3 Ka^Gal-1/ ((Ka^HSA + Ka^Coll)/2)” value was found to be 1.14.
For SVYVEISWVRTM [Peptide P6], in the data set with Human gal-1, the “Affinity 2 Ka^Gal-1 / Ka^Coll” value worked out at 1.17, the “Affinity 1 Ka^Gal-1 / Ka^HSA” value was 1.17 and the “Affinity 3 Ka^Gal-1/ ((Ka^HSA + Ka^Coll)/2)” value was found to be 1.17.
In the case of YHHSGPYAGPMW [Peptide P5], in the data set with Human gal-1, the “Affinity 2 Ka^Gal-1 / Ka^Coll” value is 1.58·10^13, the “Affinity 1 Ka^Gal-1 / Ka^HSA” value turned out to be 1.25 and the “Affinity 3 Ka^Gal-1/ ((Ka^HSA + Ka^Coll)/2)” value is listed as 2.50.
Take DWSSWVYRDPQT [Peptide P8]: in the data set with Human gal-1, the “Affinity 2 Ka^Gal-1 / Ka^Coll” value is 27.92, the “Affinity 1 Ka^Gal-1 / Ka^HSA” value amounted to 1.23 and the “Affinity 3 Ka^Gal-1/ ((Ka^HSA + Ka^Coll)/2)” value is reported as 2.36.
The corresponding values for YTFHFDIFQPHF [Peptide P2] are 8.15, 121.56 and 25.66.
As for VHWDFRQWWQPS [Peptide P4], in the data set with Human gal-1, the “Affinity 2 Ka^Gal-1 / Ka^Coll” value stood at 1.93, the “Affinity 1 Ka^Gal-1 / Ka^HSA” value is recorded as 1.18 and the “Affinity 3 Ka^Gal-1/ ((Ka^HSA + Ka^Coll)/2)” value was determined as 1.47.

The values above are taken from patent EP3459964A1, “GALECTIN-1 BINDING PEPTIDES AND USE THEREOF FOR DIAGNOSTIC AND THERAPEUTIC PURPOSE” (Université de Mons, priority 2017, dated 2019).
